IC50 and Kd data for 21 sequences are collected here from the Immune Epitope Database (IEDB).

In one assay the target is HLA-A*02:01. Kind of assay: IEDB peptide-MHC binding, purified MHC/competitive/fluorescence; ≥ and ≤ were set here for values at or beyond the usual limits of such assays. The settings on record: source organism: Zaire ebolavirus.
Another assay deals with HLA-A*32:01. In words: IEDB peptide-MHC binding, purified MHC/competitive/radioactivity; filed as Kd, often an IC50 or EC50 that approximates it; ≥ and ≤ were set here for values at or beyond the usual limits of such assays.
The target of the next assay is HLA-B*40:01. The assay is described as above.
Assay [1] concerns the target HLA-A*01:01. The description is as above.
The target in another assay is HLA-A*23:01. The assay is described as above.
In another assay the target is HLA-A*24:02. The description is as above.
For a further assay, the target named is HLA-A*26:01. Described as above.
The target in a further assay is HLA-A*29:02. Described as above.
The target in a further assay is HLA-A*30:02. Described as above.
For the next assay, the target named is HLA-B*44:02. The description is as above.
In another assay the target is HLA-B*44:03. Described as above.
The target of another assay is HLA-A*02:02. The description is as above. The settings on record: source organism: Vaccinia virus WR.
A further assay has as its target HLA-A*02:03. Described as above. The settings on record: source organism: Vaccinia virus WR.
For a further assay, the target named is HLA-A*02:06. The description is as above. The settings on record: source organism: Vaccinia virus WR.
The target in assay [2] is HLA-A*01:01. In words: IEDB peptide-MHC binding, purified MHC/direct/fluorescence; filed as Kd, often an IC50 or EC50 that approximates it; ≥ and ≤ were set here for values at or beyond the usual limits of such assays. The settings on record: source organism: Human immunodeficiency virus 1.
In the next assay the target is HLA-A*11:01. The description is as above. The settings on record: source organism: Human immunodeficiency virus 1.
In the next assay the target is HLA-B*15:01. Described as above. The settings on record: source organism: Human immunodeficiency virus 1.
Setting [3] is: source organism: Dengue virus 4 Philippines/H241/1956.
Setting [4] is: source organism: Dengue virus 1 Brazil/97-11/1997.
Setting [5] is: source organism: SARS coronavirus Tor2.
[6] abbreviates: source organism: Mammarenavirus juninense.
Where [7] appears, read: source organism: Dengue virus 3 Martinique/1243/1999.
[8] abbreviates: source organism: Dengue virus 2 Jamaica/1409/1983.
[9] abbreviates: source organism: Vaccinia virus WR.

As usually defined, the IC50 is the concentration at which inhibition is half-maximal. Low readings indicate higher potency, high ones lower potency. What is called Kd is a measure of binding affinity in units of concentration.

For DKIDQIIHD, the concentration for half-maximal inhibition (IC50) in the assay with HLA-A*02:01 was at least 387000 nM.
As for RLGYILEDI, the Kd with HLA-A*32:01 (setting [3]) worked out at 7180 nM.
With FEKQLGQIML, the Kd in the assay with HLA-B*40:01 (setting [4]) amounted to 144 nM.
Consider TNSVIIMAY, for which the Kd with HLA-A*01:01 [1] (setting [5]) is at least 25800 nM; with HLA-A*23:01 (setting [5]) it was at least 77800 nM; with HLA-A*24:02 (setting [5]) it was at least 77600 nM; with HLA-A*26:01 (setting [5]), 17300 nM; with HLA-A*29:02 (setting [5]) it was 84.5 nM; with HLA-A*30:02 (setting [5]), 2120 nM.
In the case of CGSVGFNIDY, the Kd with HLA-A*01:01 [1] (setting [5]) was 7300 nM; with HLA-A*23:01 (setting [5]), at least 70000 nM; with HLA-A*24:02 (setting [5]), at least 70300 nM; with HLA-A*26:01 (setting [5]), at least 20700 nM; in the assay with HLA-A*29:02 (setting [5]), 774 nM; in the assay with HLA-A*30:02 (setting [5]), 371 nM.
Take KEVALLRTY: the Kd in the assay with HLA-B*44:02 (setting [3]) was 2.63 nM; with HLA-B*44:03 (setting [3]), 63.6 nM.
In the case of LFQFFVFLV, the dissociation constant Kd with HLA-A*01:01 [1] (setting [6]) is 531 nM; with HLA-A*23:01 (setting [6]), 15700 nM; with HLA-A*24:02 (setting [6]), 18800 nM; in the assay with HLA-A*26:01 (setting [6]), at least 57200 nM; with HLA-A*29:02 (setting [6]) it was 437 nM; with HLA-A*30:02 (setting [6]) it was 986 nM.
In the case of EEMFKKRNLT, the equilibrium dissociation constant (Kd) in the assay with HLA-B*44:03 (setting [7]) is 4530 nM.
Take SKGWHDWQQV: in the assay with HLA-A*32:01 (setting [7]), the Kd came out at 1400 nM.
In the assay with HLA-A*02:01, DFLLQRWGG showed an IC50 of 16800 nM.
For PVSIINNAVY, the dissociation constant (Kd) is 10400 nM in the assay with HLA-A*01:01 [1] (setting [5]); at least 70000 nM with HLA-A*23:01 (setting [5]); at least 70300 nM in the assay with HLA-A*24:02 (setting [5]); 1580 nM with HLA-A*26:01 (setting [5]); 101 nM with HLA-A*29:02 (setting [5]); 601 nM with HLA-A*30:02 (setting [5]).
Take HTSSMRGVYY: the Kd is 58.5 nM in the assay with HLA-A*01:01 [1] (setting [5]); at least 70000 nM with HLA-A*23:01 (setting [5]); at least 46800 nM with HLA-A*24:02 (setting [5]); 52.7 nM with HLA-A*26:01 (setting [5]); 17.8 nM with HLA-A*29:02 (setting [5]); 3.4 nM with HLA-A*30:02 (setting [5]).
In the case of KELKCGSGI, the Kd in the assay with HLA-B*40:01 (setting [8]) worked out at 206 nM; with HLA-B*44:02 (setting [8]) it was 678 nM.
Regarding EELPDTIETL, the dissociation constant Kd with HLA-B*40:01 (setting [4]) worked out at 166 nM.
As to FYTTTGIGY, the Kd with HLA-A*01:01 [1] (setting [5]) was 242 nM; in the assay with HLA-A*23:01 (setting [5]), at least 60600 nM; with HLA-A*24:02 (setting [5]), at least 45800 nM; with HLA-A*26:01 (setting [5]), 153 nM; in the assay with HLA-A*29:02 (setting [5]), at least 46200 nM; in the assay with HLA-A*30:02 (setting [5]), at least 93800 nM.
For KTINYSFFL, the Kd with HLA-A*32:01 (setting [9]) was at most 1 nM.
In the case of GTAKLRWFVE, in the assay with HLA-A*32:01 (setting [4]), the Kd is at least 21100 nM.
On to VMYAFTTPL, for which the Kd with HLA-A*02:02 stood at 0.573 nM; with HLA-A*02:03, 1.28 nM; with HLA-A*02:06, 5.71 nM; with HLA-A*32:01 (setting [9]), 0.291 nM.
Consider FFFVYENAF, for which the Kd in the assay with HLA-A*01:01 [1] (setting [5]) is 2670 nM; in the assay with HLA-A*23:01 (setting [5]), at least 24000 nM; with HLA-A*24:02 (setting [5]), at least 60400 nM; in the assay with HLA-A*26:01 (setting [5]), 9240 nM; with HLA-A*29:02 (setting [5]), at least 23900 nM; with HLA-A*30:02 (setting [5]), at least 96800 nM.
In the case of LSNYIVSIF, the Kd in the assay with HLA-A*32:01 (setting [9]) turned out to be 111 nM.
As for TVLDVGDAY, the Kd with HLA-A*01:01 [2] was 10200 nM; with HLA-A*11:01, 436 nM; in the assay with HLA-B*15:01, 170 nM.
